According to publication PMC4947123:

Target: Ubiquitin (Ub)
Experiment: biotin-streptavidin pull-down and mass spectrometry
Conditions: N2A cells, triplicate experiments, S0: 1.5, FDR: 0.01, read off a plot

bioGFP-tagged OPTN wild-type (from UniProt Q96CV9) E478G
other: Welch's t-test difference (logarithmized ratio of relative protein intensities, WT vs mutant): 4.1
